The values that follow come from paper PMC10794152 (2023).

The labels stand for the following.
B1: PfRH5 (natural protein)
chain: ENAIKKTKNQENNLTLLPIKSTEEEKDDIKNGKDIKKEIDNDKENIKTNNAKDHSTYIKSYLNTNVNDGLKYLFIPSHNSFIKKYSVFNQINDGMLLNEKNDVKNNEDYKNVDYKNVNFLQYHFKELSNYNIANSIDILQEKEGHLDFVIIPHYTFLDYYKHLSYNSIYHKSSTYGKYIAVDAFIKKINEAYDKVKSKCNDIKNDLIATIKKLEHPYDINNKNDDSYRYDISEEIDDKSEETDDETEEVEDSIQDTDSNHTPSNKKKNDLMNRAFKKMMDEYNTKKKKLIKCIKNHENDFNKICMDMKNYGTNLFEQLSCYNNNFCNTNGIRYHYDEYIHKLILSVKSKNLNKDLSDMTNILQQSELLLTNLNKKMGSYIYIDTIKFIHKEMKHIFNRIEYHTKIINDKTKIIQDKIKLNIWRTFQKDELLKRILDMSNEYSLFITSDHLRQMLYNTFYSKEKHLNNIFHHLIYVLQMKFNDVPIKMEYFQTYKKNKPLTQ
B2: full-length human basigin (receptor)
chain: AAGTVFTTVEDLGSKILLTCSLNDSATEVTGHRWLKGGVVLKEDALPGQKTEFKVDSDDQWGEYSCVFLPEPMGTANIQLHGPPRVKAVKSSEHINEGETAMLVCKSESVPPVTDWAWYKITDSEDKALMNGSESRFFVSSSQGRSELHIENLNMEADPGQYRCNGTSSKGSDQAIITLRVRSHLAALWPFLGIVAEVLVLVTIIFIYEKRRKPEDVLDDDDAGSAPLKSSGQHQNDKGKNVRQRNSS
modifications: labelled with Alexa Fluor 488 (protein-labelling kit)
B3: basigin ectodomain (domain or fragment)
chain: AAGTVFTTVEDLGSKILLTCSLNDSATEVTGHRWLKGGVVLKEDALPGQKTEFKVDSDDQWGEYSCVFLPEPMGTANIQLHGPPRVKAVKSSEHINEGETAMLVCKSESVPPVTDWAWYKITDSEDKALMNGSESRFFVSSSQGRSELHIENLNMEADPGQYRCNGTSSKGSDQAIITLRVRSHLAAL
modifications: labelled with Alexa Fluor 488 (protein-labelling kit)
B4: PfCSS–PfPTRAMP heterodimer (complex)
chain 1: QDEKSVKNICVCDFTDKLNFLPLEKTKILCELKPQYGEDIKIIANKEYEINCMNNSKVFCPLKDTFINNTNIKLYSPKLHFEIKDITHKGKNAALYYLKIDEEASDIFFSCSIKPKQVSGLLEGEVRVNLKKHINEEYSIFNEEEDVHVCDFSKGNLDITPSAGFYLKNSRNVSCIYRVIPNKLFLIKLPKLDIVTEKLLPSIVNCLSEFSFINFTLKHVQEGDNYISFNVIFGEFKKHFNLTCSLDLSDFQQEPCNLGKTANITFIFSK
chain 2: CNLKVRNNWEHFLQVYQNNGNFKMEILEPECTIQKNLPSEEEKEEFIDFDRKELLLHDFVVIKNSQFTDEKTLELYLSKEENNKSYLMLTFYLGDLKLMIGHNSPYEISLILNVATVNKNMSNCKNNSYNIVLLKTTDVFNTSDLEILEGPIQFSLGKSSGAFRINVTNFFLNNTWKAFTKDKISFLIKPEENCYTILENKINKPQLLIEKKTTFYSEWGEWSNCSMDCDHPDNVQIRERECIHPSGDCFKGDLKESRPCIIPLPPCNELFSHKDNST

For experiment [1], the target named is B2. Nature of the experiment: MST; replicate 2.
The target in the experiment “basigin ectodomain” is B3. Nature of the experiment: MST; replicate 2.
Experiment [2] concerns the target T1, PfRCR complex (P. falciparum, UniProt Q8IFM8;O97302). The experiment is described as follows: MST; replicate 1.
For experiment [3], the target named is T1, PfRCR complex. Nature of the experiment: MST; replicate 2.
In experiment [4] the target is T2, PfRIPR tail (P. falciparum, UniProt O97302 717-1086, N964Q | N1021Q). Nature of the experiment: SPR; replicate 1.
Experiment [5] concerns the target T3, PfRIPR (P. falciparum, UniProt O97302 21-1086). Nature of the experiment: SPR; replicate 1.
In experiment [6] the target is T2, PfRIPR tail. The experiment is described as follows: SPR; replicate 2.
Experiment [7] has as its target T2, PfRIPR tail. The experiment is described as follows: SPR; replicate 4.
For experiment [8], the target named is T3, PfRIPR. Nature of the experiment: SPR; replicate 4.

With B1, the results for the Kd (in experiment [1]; with basigin ectodomain) were 171 nM and 151 nM, respectively.

For the molecule B2, the Kd in the experiment with PfRCR complex [2] was determined as 149 nM; in the experiment with PfRCR complex [3] it was 181 nM.

Take B3: the Kd with PfRCR complex [2] was 125 nM; with PfRCR complex [3], 184 nM.

Turning to B4, the Kd with PfRIPR tail [4] was found to be 2790 nM; in the experiment with PfRIPR [5], 2970 nM; in the experiment with PfRIPR tail [6], 5370 nM; in the experiment with PfRIPR tail [7] it was 4900 nM; with PfRIPR [8] it was 4320 nM.
